To fix the notation:
B1: recombinant 6His-3FLAG-Cdc14 (enzyme, S. cerevisiae, UniProt Q00684 1-551, looked up)
chain: MRRSVYLDNTIEFLRGRVYLGAYDYTPEDTDELVFFTVEDAIFYNSFHLDFGPMNIGHLYRFAVIFHEILNDPENANKAVVFYSSASTRQRANAACMLCCYMILVQAWTPHQVLQPLAQVDPPFMPFRDAGYSNADFEITIQDVVYGVWRAKEKGLIDLHSFNLESYEKYEHVEFGDFNVLTPDFIAFASPQEDHPKGYLATKSSHLNQPFKSVLNFFANNNVQLVVRLNSHLYNKKHFEDIGIQHLDLIFEDGTCPDLSIVKNFVGAAETIIKRGGKIAVHCKAGLGRTGCLIGAHLIYTYGFTANECIGFLRFIRPGMVVGPQQHWLYLHQNDFREWKYTTRISLKPSEAIGGLYPLISLEEYRLQKKKLKDDKRVAQNNIEGELRDLTMTPPSNGHGALSARNSSQPSTANNGSNSFKSSAVPQTSPGQPRKGQNGSNTIEDINNNRNPTSHANRKVVIESNNSDDESMQDTNGTSNHYPKVSRKKNDISSASSSRMEDNEPSATNINNAADDTILRQLLPKNRRVTSGRRTTSAAGGIRKISGSIKK

Test [1] addresses recombinant Bmh1-EGFP-His6 (S. cerevisiae) (UniProt P29311). Description: pull-down.
Test [2] deals with recombinant Bmh1/2-EGFP-His6 (S. cerevisiae) (UniProt P29311). Nature of the test: pull-down.
Test [3] has as its target recombinant Bmh2-EGFP-His6 (S. cerevisiae) (UniProt P34730). Description: pull-down.
For test [4], the target named is Rim4-FLAG (S. cerevisiae) (UniProt P38741). Description: mass photometry.
For test [5], the target named is T1, recombinant Rim4(PxLm)-His6 (S. cerevisiae, UniProt P38741 1-713, P454E455L456 to A454E455G456).
T1 sequence (looked up): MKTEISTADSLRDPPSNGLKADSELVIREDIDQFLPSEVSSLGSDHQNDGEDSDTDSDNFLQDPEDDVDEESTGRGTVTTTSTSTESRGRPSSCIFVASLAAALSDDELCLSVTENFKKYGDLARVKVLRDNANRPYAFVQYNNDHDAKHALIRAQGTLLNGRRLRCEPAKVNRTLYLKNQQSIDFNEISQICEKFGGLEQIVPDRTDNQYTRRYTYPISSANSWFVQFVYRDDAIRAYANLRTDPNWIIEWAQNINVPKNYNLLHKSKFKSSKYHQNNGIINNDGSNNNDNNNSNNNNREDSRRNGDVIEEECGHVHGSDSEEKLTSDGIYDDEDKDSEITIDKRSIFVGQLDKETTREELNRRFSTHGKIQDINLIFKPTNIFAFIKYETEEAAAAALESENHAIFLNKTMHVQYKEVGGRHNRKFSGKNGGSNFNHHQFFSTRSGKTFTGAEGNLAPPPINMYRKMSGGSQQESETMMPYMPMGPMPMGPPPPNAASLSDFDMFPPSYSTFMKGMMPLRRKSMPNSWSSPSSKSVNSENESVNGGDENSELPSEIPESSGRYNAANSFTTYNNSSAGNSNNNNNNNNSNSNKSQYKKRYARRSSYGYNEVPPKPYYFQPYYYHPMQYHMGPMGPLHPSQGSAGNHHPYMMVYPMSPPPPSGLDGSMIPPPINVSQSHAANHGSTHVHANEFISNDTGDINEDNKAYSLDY
Nature of the test: pull-down.

The target in test [6] is B1. Nature of the test: pull-down.
A further test has as its target T2, Bmh1 (S. cerevisiae (endogenous in W303 …, UniProt P29311 1-267)).
T2 sequence (looked up): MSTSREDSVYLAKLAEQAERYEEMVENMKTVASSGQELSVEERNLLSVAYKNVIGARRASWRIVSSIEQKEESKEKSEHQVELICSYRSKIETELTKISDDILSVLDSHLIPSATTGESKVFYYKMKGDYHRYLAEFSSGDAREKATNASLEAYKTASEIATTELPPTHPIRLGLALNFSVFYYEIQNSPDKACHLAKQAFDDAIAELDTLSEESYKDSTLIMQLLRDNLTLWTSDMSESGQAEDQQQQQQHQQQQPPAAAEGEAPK
Nature of the test: mass photometry.

We go through 6 molecules from paper PMC10591911 (Cell reports, 2023).

Consider “PKA-treated Rim4-His6 (Rim4-BBS-p) (from UniProt P38741 1-713) (natural protein)”, for which the mole ratio in the pull-down, printed 2.5:1 in test [1], in test [2] and in test [3] was 2.5 throughout. For the molecule “Bmh2 (from UniProt P34730 1-273) (natural protein)”, in test [4], the stoichiometry N (as a rule, a count of units in the complex or per binding partner) was found to be 1. With “Bmh1 (from UniProt P29311 1-267) (natural protein)”, in test [4], the stoichiometry N was 1. As for B1, the binding result in test [5] was “binds”.

B2: recombinant Rim4(ΔC289)-His6 (domain or fragment, S. cerevisiae, UniProt P38741 1-424, looked up)
chain: MKTEISTADSLRDPPSNGLKADSELVIREDIDQFLPSEVSSLGSDHQNDGEDSDTDSDNFLQDPEDDVDEESTGRGTVTTTSTSTESRGRPSSCIFVASLAAALSDDELCLSVTENFKKYGDLARVKVLRDNANRPYAFVQYNNDHDAKHALIRAQGTLLNGRRLRCEPAKVNRTLYLKNQQSIDFNEISQICEKFGGLEQIVPDRTDNQYTRRYTYPISSANSWFVQFVYRDDAIRAYANLRTDPNWIIEWAQNINVPKNYNLLHKSKFKSSKYHQNNGIINNDGSNNNDNNNSNNNNREDSRRNGDVIEEECGHVHGSDSEEKLTSDGIYDDEDKDSEITIDKRSIFVGQLDKETTREELNRRFSTHGKIQDINLIFKPTNIFAFIKYETEEAAAAALESENHAIFLNKTMHVQYKEVGGRH
Consider B2, for which, in test [6], the binding result is reported as “binds”.

B3: Bmh2 (natural protein, UniProt P34730 1-273, looked up)
chain: MSQTREDSVYLAKLAEQAERYEEMVENMKAVASSGQELSVEERNLLSVAYKNVIGARRASWRIVSSIEQKEESKEKSEHQVELIRSYRSKIETELTKISDDILSVLDSHLIPSATTGESKVFYYKMKGDYHRYLAEFSSGDAREKATNSSLEAYKTASEIATTELPPTHPIRLGLALNFSVFYYEIQNSPDKACHLAKQAFDDAIAELDTLSEESYKDSTLIMQLLRDNLTLWTSDISESGQEDQQQQQQQQQQQQQQQQQAPAEQTQGEPTK
For the molecule B3, in the test with Bmh1, the “stoichiometry N” value stood at 1.
